Biological target: CD16 on CD16-transfected BW cells (FcγRIIIA-transfected BW cell line) (UniProt P08637)
Assay: FACS on BW-CD16 cells

UniProt P08637, sequence (P08637 17-254 limits assumed): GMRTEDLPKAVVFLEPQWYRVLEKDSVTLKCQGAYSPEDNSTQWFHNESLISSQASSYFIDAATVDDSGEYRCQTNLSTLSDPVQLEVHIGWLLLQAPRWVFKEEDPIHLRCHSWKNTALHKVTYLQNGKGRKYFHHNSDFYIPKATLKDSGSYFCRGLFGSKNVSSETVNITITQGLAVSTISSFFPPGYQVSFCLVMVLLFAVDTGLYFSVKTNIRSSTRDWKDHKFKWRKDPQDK

binding percentage: 99.8%
Substance: rituximab (intact, undigested) (antibody)
